Reference: US20110046068A1 (MEDICAL RESEARCH COUNCIL, published 2011)
One block for each binder: values may come before it. Non-standard residues stand in square brackets, D forms with d. No end group written: not given here.

Tests used:
human gpr-54 receptor [1] = target: T1, human gpr-54 receptor (human, UniProt Q969F8 1-398); experiment: whole-cell competition binding against 125I-kisspeptin, CHO cells stably transfected with hGPR54 (CPM) [187]
T1 construct: whole, on cells; CHO cells stably expressing the human gpr-54 receptor came from Prof; G. Vassart; also called kisspeptin receptor; AXOR12
T1 sequence (Q969F8 whole entry): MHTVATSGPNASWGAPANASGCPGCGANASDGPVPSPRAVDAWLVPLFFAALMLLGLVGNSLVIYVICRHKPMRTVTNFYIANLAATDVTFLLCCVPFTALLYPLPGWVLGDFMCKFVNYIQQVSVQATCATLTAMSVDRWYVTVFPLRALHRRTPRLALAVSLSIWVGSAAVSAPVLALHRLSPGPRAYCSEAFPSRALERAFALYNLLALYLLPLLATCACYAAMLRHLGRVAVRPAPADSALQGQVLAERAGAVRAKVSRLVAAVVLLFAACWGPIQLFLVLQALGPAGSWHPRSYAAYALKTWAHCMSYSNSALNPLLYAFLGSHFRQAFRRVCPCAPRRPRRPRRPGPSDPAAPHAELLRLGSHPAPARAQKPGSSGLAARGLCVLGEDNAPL
Method: (§1) Cell monolayers were placed on ice and exposed to 0.5 mls peptide (10 pM-1 uM); the cells were then incubated at 4° C. for 4 hr. After 4 hrs, cells were washed twice with ice cold Dulbecco's phosphate buffered saline (DPBS; with Calcium and Magnesium) and then 0.5 mls 0.1M Sodium Hydroxide (NaOH) were added to cells for 20 minutes, shaking to lyse cells. Lysates were transferred to plastic tubes and bound radioactivity counted on the gamma counter for 60 seconds.

human gpr-54 receptor [2] = target: T1, human gpr-54 receptor; experiment: cell-based or functional assay
human gpr-54 receptor [3] = target: T1, human gpr-54 receptor; experiment: cell-based or functional assay; remark: listed apart in the source
human gpr-54 receptor [4] = target: T1, human gpr-54 receptor; experiment: cell-based or functional assay; remark: listed apart in the source
human gpr-54 receptor [5] = target: T1, human gpr-54 receptor; experiment: whole-cell competition binding against 125I-kisspeptin, CHO cells stably transfected with GPR54 (CPM) [234]
Method: as §1

human gpr-54 receptor [6] = target: T1, human gpr-54 receptor; experiment: cell-based or functional assay; remark: listed apart in the source
human gpr-54 receptor [7] = target: T1, human gpr-54 receptor; experiment: competition of I125-labelled kisspeptin-10 on gpr-54 cells (CPM x 10^3); the legend calls the number an affinity
human gpr-54 receptor [8] = target: T1, human gpr-54 receptor; experiment: cell-based or functional assay; remark: listed apart in the source
human gpr-54 receptor [9] = target: T1, human gpr-54 receptor; experiment: whole-cell competition binding against 125I-kisspeptin, CHO cells stably transfected with GPR54 (CPM); the fall of the curve lies between Total and -10 LogM [200]
Method: as §1

human gpr-54 receptor [10] = target: T1, human gpr-54 receptor; experiment: cell-based or functional assay; remark: listed apart in the source
human gpr-54 receptor [11] = target: T1, human gpr-54 receptor; experiment: whole-cell competition binding against 125I-kisspeptin, CHO cells stably transfected with hGPR54 (CPM) [188]
Method: as §1

IC50 (human gpr-54 receptor [1]): 211 nM
IP dose response, peptide alone: EC50 (unlabelled number beside rising curve) [187] (human gpr-54 receptor [2]): 72.1 nM
IP stimulation (IC50), peptide alone (human gpr-54 receptor [3]): 40 nM
Inhibition of IP stimulation by 10nM Agonist: % Inhibition of Max (human gpr-54 receptor [3]): 36%
B1: 187 (peptide)
peptide: YNWNSFGLRW-NH2
notes: kisspeptin-10 analogue

IC50 of inhibition of 10 nM kisspeptin-10 stimulation of IP (human gpr-54 receptor [4]): 7 nM
IC50 of inhibition of kisspeptin stimulation of IP (human gpr-54 receptor [4]): < 10 nM
IC50 (human gpr-54 receptor [5]): 2.79 nM
IP competition with 10nM kisspeptin-10: IC50 [234] (human gpr-54 receptor [6]): 70 nM
IC50 (human gpr-54 receptor [7]): 2.8 nM
Inhibition of IP stimulation by 10nM Agonist: IC50 (human gpr-54 receptor [3]): 70 nM
B2: Peptide 234 (peptide)
peptide: [dA]NWNGFG[dW]RF-NH2

IP competition with 10nM kisspeptin-10: IC50 [200] (human gpr-54 receptor [8]): 300 nM
IC50 (human gpr-54 receptor [9]): 0.00249 nM
Inhibition of IP stimulation by 10nM Agonist: % Inhibition of Max (human gpr-54 receptor [3]): 63%
Inhibition of IP stimulation by 10nM Agonist: IC50 (human gpr-54 receptor [3]): 300 nM
B3: 200 (peptide)
peptide: Ac-FGL[dR]W-NH2
modifications: not fully specified
notes: kisspeptin-10 analogue; also called acFGL[(D)-R]W

IP competition with 10nM kisspeptin-10: IC50 [188] (human gpr-54 receptor [10]): < 0.1 nM
IP dose response, peptide alone: EC50 (unlabelled number beside rising curve) [188] (human gpr-54 receptor [10]): 92.3 nM
IC50 (human gpr-54 receptor [11]): 143 nM
IP stimulation (IC50), peptide alone (human gpr-54 receptor [3]): 125 nM
Inhibition of IP stimulation by 10nM Agonist: % Inhibition of Max (human gpr-54 receptor [3]): 74%
B4: 188 (peptide)
peptide: Ac-FGLRF-NH2
notes: kisspeptin-10 analogue; also called Peptide 188; acFGLRF
